B1: 5-hydroxytryptamine receptor 1A (Homo sapiens), P08908 (parent)
chain: MDVLSPGQGNNTTSPPAPFETGGNTTGISDVTVSYQVITSLLLGTLIFCAVLGNACVVAAIALERSLQNVANYLIGSLAVTDLMVSVLVLPMAALYQVLNKWTLGQVTCDLFIALDVLCCTSSILHLCAIALDRYWAITDPIDYVNKRTPRRAAALISLTWLIGFLISIPPMLGWRTPEDRSDPDACTISKDHGYTIYSTFGAFYIPLLLMLVLYGRIFRAARFRIRKTVKKVEKTGADTRHGASPAPQPKKSVNGESGSRNWRLGVESKAGGALCANGAVRQGDDGAALEVIEVHRVGNSKEHLPLPSEAGPTPCAPASFERKNERNAEAKRKMALARERKTVKTLGIIMGTFILCWLPFFIVALVLPFCESSCHMPTLLGAIINWLGYSNSLLNPVIYAYFNKDFQNAFKKIIKCKFCRQ

Variants of: B1
Settings: with fgfr1_human FGFR1, P11362
Sequence of fgfr1_human FGFR1, P11362 (P11362 whole entry, looked up): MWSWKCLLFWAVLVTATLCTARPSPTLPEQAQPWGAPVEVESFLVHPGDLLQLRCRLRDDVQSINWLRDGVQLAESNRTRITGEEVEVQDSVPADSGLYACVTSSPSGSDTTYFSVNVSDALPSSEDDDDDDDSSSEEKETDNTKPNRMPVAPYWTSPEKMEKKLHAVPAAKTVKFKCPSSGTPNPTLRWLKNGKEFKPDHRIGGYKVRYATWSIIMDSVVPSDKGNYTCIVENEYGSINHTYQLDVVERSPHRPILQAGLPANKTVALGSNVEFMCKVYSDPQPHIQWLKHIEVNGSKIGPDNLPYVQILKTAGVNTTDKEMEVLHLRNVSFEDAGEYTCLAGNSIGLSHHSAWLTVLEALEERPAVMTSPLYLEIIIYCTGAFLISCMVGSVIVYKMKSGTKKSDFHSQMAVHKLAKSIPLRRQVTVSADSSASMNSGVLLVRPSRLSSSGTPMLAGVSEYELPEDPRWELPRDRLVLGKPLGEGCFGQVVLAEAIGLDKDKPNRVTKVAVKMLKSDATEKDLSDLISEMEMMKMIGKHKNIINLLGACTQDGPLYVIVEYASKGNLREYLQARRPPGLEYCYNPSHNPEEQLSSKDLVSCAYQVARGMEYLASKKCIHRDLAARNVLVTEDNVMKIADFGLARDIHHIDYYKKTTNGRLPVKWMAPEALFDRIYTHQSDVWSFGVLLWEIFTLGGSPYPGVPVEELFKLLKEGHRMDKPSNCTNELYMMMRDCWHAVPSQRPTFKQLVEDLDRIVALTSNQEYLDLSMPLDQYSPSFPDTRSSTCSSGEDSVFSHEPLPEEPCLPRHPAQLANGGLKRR

| effect of a mutation on the interaction | Variant |
| --- | --- |
| decreasing interaction | MDVLSPGQGNNTTSPPAPFETGGNTTGISDVTVSYQVITSLLLGTLIFCAVLGNACVVAAIALERSLQNVANYLIGSLAVTDLMVSVLVLPMAALYQVLNKWTLGQVTCDLFIALDVLCCTSSILHLCAIALDRYWAITDPIDYVNKRTPRRAAALISLTWLIGFLISIPPMLGWRTPEDRSDPDACTISKDHGYTIYSTFGAFYIPLLLMLVLYGRIFRAARFRIRKTVKKVEKTGADTRHGASPAPQPKKSVNGESGSRNWRLGVESKAGGALCANGAVRQGDDGAALEVIEVHRVGNSKEHLPLPSEAGPTPCAPASFERKNERNAEAKRKMALARERKTVKTLGIIMGTFILCWLPFFIVALVLPFCESSCHMPTLLGAIINWLGYSNSLLNPVIYAYFNKAAAAAAAAAAACKFCRQ [D406A;F407A;Q408A;N409A;F411A;K412A;K413A;I414A;I415A;K416A] |
